Earlier results, collected in paper PMC3773300 (Journal of inorganic biochemistry, 2013).

Conditions: Mb

Question: For “Mb: Myoglobin, heme protein involved in reversible O2 binding”, which redox potential is on record?
Answer: The redox potential was 59 mV.
